Test results taken from patent US20230399385A1 (NANJING VAZYME BIOTECH, published 2023).

What was measured:
[1] = target: T1, SARS-CoV-2 RBD (receptor binding domain of the spike protein of SARS-CoV-2; Vazyme Biotech) (SARS-CoV-2, UniProt P0DTC2 319-541); assay: biolayer interferometry, ForteBio Octet RED96e, RBD 100 nM to 3.13 nM, 1:1 Langmuir model
[2] = target: T1, SARS-CoV-2 RBD (receptor binding domain …); assay: method not stated in this sentence (summary of Example 1); biolayer interferometry in Example 2
[3] = target: SARS-CoV-2 spike (S) glycoprotein, wild-type, on pseudotyped virus (SARS-CoV-2, UniProt P0DTC2 14-1273); assay: cell-based or functional assay
[4] = target: T1, SARS-CoV-2 RBD (receptor binding domain …); assay: ELISA: SARS-CoV-2 RBD coated on the plate, Antibody 5-10 titrated, detected with anti-human IgG-HRP/TMB, OD450
[5] = target: T1, SARS-CoV-2 RBD (receptor binding domain …); assay: HTRF ACE2/RBD binding assay (665/620 ratio): Antibody 5-10 titrated, blocked ligand ACE2

B1: Antibody 5-10 (antibody, V domains shown)
VH: EVQLLESGGGLVQPGGSLRLSCAASGFTFSSYAMSWVRQAPGKGLEWVSAIVGSGGSTYYADSVKGRFIISRDNSKNTLYLQMNSLRAEDTAVYYCAKSLIYGHYDILTGAYYFDYWGQGTLVTVSS
VL: DIQMTQSPSSVSASVGDRVTIPCRASQGIGNWLAWYQQKPGKAPKLLIYAASSLQSGVPSRFSGSGSGTDFTLTISSLQPEDFATYYCQQANSFPPFGQGTRLEIK
notes: also called anti-SARS-CoV-2 RBD Antibody 5-10; monoclonal Antibody 5-10
[1]
  Kd: 4.32 nM
[2]
  Kd: 4.31 nM
[3]
  IC50, neutralizing effects on SARS-CoV-2 pseudovirus: 0.0425 µg/mL
[4]
  EC50: 0.0269 µg/mL
[5]
  IC50: 0.231 µg/mL
